Here are results for one substance from IntAct's records for PubMed 17210637.

In the assay the target is merl_human NF2 (UniProt P35240).
Chain of UniProt P35240 (P35240 whole entry): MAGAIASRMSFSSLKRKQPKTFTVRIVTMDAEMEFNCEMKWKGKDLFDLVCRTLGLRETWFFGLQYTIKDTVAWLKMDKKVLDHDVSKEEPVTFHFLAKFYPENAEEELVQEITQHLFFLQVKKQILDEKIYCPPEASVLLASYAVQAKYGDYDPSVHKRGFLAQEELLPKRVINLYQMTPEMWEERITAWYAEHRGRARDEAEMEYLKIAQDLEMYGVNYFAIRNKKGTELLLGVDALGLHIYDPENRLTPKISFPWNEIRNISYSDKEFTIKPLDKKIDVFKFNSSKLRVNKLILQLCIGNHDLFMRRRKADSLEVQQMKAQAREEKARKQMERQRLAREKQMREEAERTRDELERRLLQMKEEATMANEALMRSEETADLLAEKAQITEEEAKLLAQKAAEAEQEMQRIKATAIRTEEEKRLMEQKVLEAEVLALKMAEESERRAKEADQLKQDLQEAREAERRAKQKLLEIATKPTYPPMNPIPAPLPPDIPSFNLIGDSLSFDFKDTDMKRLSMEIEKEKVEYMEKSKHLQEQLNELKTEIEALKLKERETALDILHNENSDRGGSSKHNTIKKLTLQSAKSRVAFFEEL

As for “GTP-binding protein 4 (Homo sapiens) (from UniProt Q9BZE4) R394A;K395A”, the “effect of a mutation on the interaction” value is “decreasing interaction”.
